{"source": "patent US10076576B2", "about": "“Minimally toxic prodrugs” (priority 2012, dated 2018)", "key": {"[1]": {"test_system": "MX-1 mammary carcinoma human xenografts", "assay": "Efficacy after repeated ip injections (2Q1D5×2W), MX-1 xenograft", "format": "in vivo, NMRI nude mice", "conditions": "for TGI [% (day)]: day 35; for body weight loss (in words): Doxorubicin 1 μmol/kg (MTD), PhAc-ALGP-Dox 50 μmol/kg, ip 2Q1D5×2W", "description": "FIG. 10. […] Drugs or controls were administered by the i.p. route twice a day for five consecutive days (arrows). Treatment was repeated with 72 hours interval between two cycles."}, "[2]": {"test_system": "LS174T colon carcinoma human xenografts", "assay": "Efficacy after repeated iv bolus, LS174T xenograft", "conditions": "for TGI [% (day)]: day 28", "description": "FIG. 2. Efficacy study of PhAc-ALGP-Dox in comparison with free Doxorubicin in NMRI nude mice bearing LS174T colon carcinoma human xenografts. Drugs or controls were administered by the i.v. route on day 0 and day 7. The mice receiving a constant volume (10 μL/g) of either saline (-●-;-◯-) or of the different dosing solutions: PhAc-ALGP-Dox 140 μmolKg (-▴-) and 160 μmol/kg (-×-); Dox 15 μmol/kg (-♦-). Results represent the mean body weight and tumor volume evolution±SEM (n=4).\nThe anti-tumor activity of doxorubicin and PhAc-ALGP-Dox was tested in models of athymic mice (nude/nude NMRI) carrying ectopic xenografts of human LS-174T colon carcinoma or MX-1 mammary carcinoma.\nLS174T and MX-1 tumors were established by a subcutaneous implantation of cells (3×10^6 and 10^7 cells injected respectively) in the right flank of 6 weeks old female NMRI nude mice (Harlan). […] The day of the first injection animals were randomly assigned to groups of 4 animals. […] Compounds were delivered by bolus intravenous injection (i.v.) in the lateral tail vein at 10 μl/g. During the course of the experiment, clinical signs, body weight and tumor volume were controlled twice a week. Results are presented as the evolution of mean tumor volume as a function of time. Optimal T/C (ratio of mean tumor volume of treated versus control mice) values were used as a measure of treatment efficacy."}, "[3]": {"biological_target": "CD26 (Homo sapiens, UniProt P27487)", "sequence (P27487 whole entry)": "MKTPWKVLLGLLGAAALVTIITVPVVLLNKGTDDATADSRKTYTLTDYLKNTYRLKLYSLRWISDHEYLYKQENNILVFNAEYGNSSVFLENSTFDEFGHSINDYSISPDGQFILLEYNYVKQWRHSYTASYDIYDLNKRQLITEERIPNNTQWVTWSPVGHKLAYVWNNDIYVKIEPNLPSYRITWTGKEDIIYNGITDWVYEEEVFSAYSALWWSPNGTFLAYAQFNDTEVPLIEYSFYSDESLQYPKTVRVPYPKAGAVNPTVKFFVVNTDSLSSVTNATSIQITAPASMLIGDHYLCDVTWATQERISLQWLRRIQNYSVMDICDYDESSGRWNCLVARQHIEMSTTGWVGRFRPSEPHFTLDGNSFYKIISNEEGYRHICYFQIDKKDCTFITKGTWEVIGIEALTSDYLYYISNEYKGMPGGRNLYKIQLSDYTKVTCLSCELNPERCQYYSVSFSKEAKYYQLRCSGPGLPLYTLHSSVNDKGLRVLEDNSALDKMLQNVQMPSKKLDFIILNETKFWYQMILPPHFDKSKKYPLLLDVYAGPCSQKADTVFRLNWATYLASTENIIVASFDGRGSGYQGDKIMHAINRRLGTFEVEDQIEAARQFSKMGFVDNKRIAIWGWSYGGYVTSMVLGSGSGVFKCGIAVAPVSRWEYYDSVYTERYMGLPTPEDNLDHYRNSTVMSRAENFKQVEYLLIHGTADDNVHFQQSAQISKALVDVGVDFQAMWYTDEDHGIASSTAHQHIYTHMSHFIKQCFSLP", "assay": "Reactivation assay with purified CD26", "format": "biochemical", "conditions": "CD26 1 μg/ml", "description": "(§1) TOP (recombinant human thimet oligopeptidase, R&D systems, Ref 3439-ZN) was diluted at 10 nM in a solution of 50 mM Tris-HCl pH 7.4/0.5M NaCl/0.1M DTT. CD26 and FAP were diluted at 1 μg/mL in a Tris-HCl pH 7.5 buffer. Reactions were initiated by addition of 50 μM of each compound to enzymes solutions (1 V enzyme solution+1 V 100 μM drug solution). Samples were incubated for 0, 1, or 3 hours at 37° C. in a water bath in the presence of purified enzymes. Fifty μL of sample were collected at each time point and processed as described above for human plasma. Activation of Suc-βALAL-dox was tested in parallel as a reference."}, "[4]": {"assay": "Stability in citrated human blood", "conditions": "5 hours incubation at 37° C. in citrated human blood, 50 μM"}, "[5]": {"biological_target": "T1, TOP (recombinant human thimet oligopeptidase) (Homo sapiens, UniProt P52888)", "T1 construct": "purchased R&D systems 3439-ZN", "T1 sequence (P52888 whole entry)": "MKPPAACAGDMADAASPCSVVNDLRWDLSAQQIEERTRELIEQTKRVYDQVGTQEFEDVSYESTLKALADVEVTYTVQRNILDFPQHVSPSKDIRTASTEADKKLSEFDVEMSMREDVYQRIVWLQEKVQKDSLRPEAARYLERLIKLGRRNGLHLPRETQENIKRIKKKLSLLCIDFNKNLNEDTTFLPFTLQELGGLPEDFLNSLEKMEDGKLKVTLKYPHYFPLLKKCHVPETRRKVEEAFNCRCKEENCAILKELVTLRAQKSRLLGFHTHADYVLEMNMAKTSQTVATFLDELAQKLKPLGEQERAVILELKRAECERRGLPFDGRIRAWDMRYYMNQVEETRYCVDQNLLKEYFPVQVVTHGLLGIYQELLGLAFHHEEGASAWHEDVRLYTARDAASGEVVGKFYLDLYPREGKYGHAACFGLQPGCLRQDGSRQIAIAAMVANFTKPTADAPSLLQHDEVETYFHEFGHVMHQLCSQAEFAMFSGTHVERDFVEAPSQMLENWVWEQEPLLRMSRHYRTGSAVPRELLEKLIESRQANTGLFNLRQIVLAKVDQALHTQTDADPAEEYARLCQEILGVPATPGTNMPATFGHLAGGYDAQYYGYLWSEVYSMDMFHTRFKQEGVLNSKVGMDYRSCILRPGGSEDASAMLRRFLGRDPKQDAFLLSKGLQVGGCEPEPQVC", "assay": "Reactivation assay with purified TOP", "format": "biochemical", "conditions": "3 h at 37° C., 50 μM compound", "description": "as §1"}, "[6]": {"format": "in vivo, CD1 mice", "excerpt": "FIG. 13. Evaluation of chronic cardiotoxicity of PhAc-ALGP-Dox in CD-1 mice. Animals received 10 intravenous injections (arrows) of saline (●); Doxorubicin 6.9 μmol/kg (▪) or of PhAc-ALGP-Dox at 13.8 (▴), 27.6 (×), 55.2 (*) and 82.8 μmol/kg (◯). Results represent the evolution of the average relative body weight (%). †=dead mouse.\nChronic cardiac toxicity of PhAc-ALGP-Dox in mice was morphologically evaluated as previously described by Bertazzoli et al. 1979 (Cancer Treat Rep 63, 1877-1883). CD1 female white mice were treated by bolus intravenous injection in the tail vein at 10 μL/g (6 mice per group). Compounds were injected twice a week, ten times. Animals were not treated for 2 weeks between the first four injections and the last six injections to allow recovery of the bone marrow depression. The treatment dose-levels of PhAc-ALGP-Dox were: 13.8; 27.6; 55.2; and 82.8 μmol/kg. Doxorubicin 6.9 μmol/kg was used as a reference. Three weeks after the last injection, animals were deeply anaesthetized by intraperitoneal injection of nembutal (50 mg/kg) and exsanguinated. The hearts were carefully collected, rinsed in NaCl 9°/oo and fixed in a 10% formaldehyde solution. Samples were processed for histopathological analysis (CITox Lab, France). The heart was trimmed, embedded in paraffin wax, sectioned at a thickness of 4 microns and stained with hematoxylin-eosin before microscopic evaluation. During the course of the experiment, body weight was controlled before each injection or once a week."}, "[7]": {"assay": "Stability in citrated human plasma", "conditions": "5 hours incubation at 37° C. in citrated human plasma (pH7), 50 μM", "description": "The drug conjugates (50 μM) were mixed with human plasma and incubated for 5 hours at 37° C. in a water bath. […] Supernatant was collected."}, "[8]": {"test_system": "LS-174T tumor cell secreted peptidases", "assay": "Reactivation assay in LS174T tumor cell conditioned medium", "format": "biochemical, human", "conditions": "5 h at 37° C.", "description": "Sub-confluent cultures of LS-174T tumor cells were washed twice with a saline phosphate buffer solution, and fresh culture medium (DMEM-F12 without phenol red) containing 0.02% bovine serum albumin is added (100 μl/cm^2). After 24 hours incubation, the conditioned medium is collected, centrifuged for 10 minutes at 300 g, buffered with 1 M Tris-HCl, pH 7.4 (1 volume of buffer+19 volumes of medium) and concentrated 20 times by […] (cutoff threshold of 10 kDa).\nDrug compounds (50 μM) were incubated for 0, 1, 3 or 5 hours at 37° C. in the presence of freshly prepared LS174T tumor cell conditioned medium. Fifty μL of sample were collected at each time point and processed as described above for human plasma."}, "[9]": {"conditions": "13.8-82.8 μmol/kg, 10 iv injections"}}, "note": "Values joined by “and” are separate entries in the source; they are usually repeats but may differ in a detail not shown here. Equal entries are not always repeated. “Also recorded” adds a separate entry of the source."}
{"smiles": "COc1cccc2c1C(=O)c1c(O)c3c(c(O)c1C2=O)C[C@@](O)(C(=O)CO)C[C@@H]3O[C@H]1C[C@H](N)[C@H](O)[C@H](C)O1", "note": "[Doxorubicin, reference compound]", "values": [{"measurement": "TGI [% (day)]", "setting": "[1]; 1 μmol/kg ip 2Q1D5×2W", "result": "44% and 44 (35), n = 3%"}, {"measurement": "toxicity (in words)", "setting": "[1]; 1.5 μmol/Kg ip 2Q1D5×2W", "result": "very toxic"}, {"measurement": "body weight loss (in words)", "setting": "[1]", "result": "No significant body weight loss"}, {"measurement": "TGI [% (day)]", "setting": "[2]; 15 μmol/kg iv day 0 and 7", "result": "55 (28) %"}]}
{"smiles": "COc1cccc2c1C(=O)c1c(O)c3c(c(O)c1C2=O)CC(O)(C(=O)CO)CC3OC1CC(NC(=O)C2CCCN2C(=O)CNC(=O)C(CC(C)C)NC(=O)C(C)NC(=O)CP(=O)(O)O)C(O)C(C)O1", "note": "(centres unmarked) [PhAc-ALGP-Dox, PhAc-ALGP-doxorubicin]", "values": [{"measurement": "hydrolysis by CD26 (in words)", "setting": "[3]", "result": "Neither CD26 nor FAP hydrolized; also recorded: did not hydrolyze"}, {"measurement": "% metabolites released: Dox", "setting": "[4]", "result": 6, "unit": "%"}, {"measurement": "% metabolites released: GP-dox", "setting": "[4]", "result": 3, "unit": "%"}, {"measurement": "% metabolites released: P-Dox", "setting": "[4]", "result": 0, "unit": "%"}, {"measurement": "total % metabolites", "setting": "[4]", "result": 9, "unit": "%"}, {"measurement": "TGI [% (day)]", "setting": "[1]; 50 μmol/kg ip 2Q1D5×2W", "result": "76% and 76 (35), n = 4%"}, {"measurement": "body weight loss (in words)", "setting": "[1]", "result": "No significant body weight loss"}, {"measurement": "body weight loss (maximum)", "setting": "[2]; 140 μmol/kg and 160 μmol/kg iv, twice", "result": "≤ 10", "unit": "%"}, {"measurement": "TGI [% (day)]", "setting": "[2]; 140 μmol/kg iv day 0 and 7", "result": "79 (28) %"}, {"measurement": "TGI [% (day)]", "setting": "[2]; 160 μmol/kg iv day 0 and 7", "result": "81 (28) %"}, {"measurement": "% Metabolites released after 3 h (TOP 5 nM)", "setting": "[5]", "result": "72% and 72 ± 14%"}, {"measurement": "body weight loss (in words)", "setting": "[6]; [9]", "result": "No body weight loss"}, {"measurement": "pathologic microscopic findings in the heart (in words)", "setting": "[6]; [9]", "result": "did not induce any pathologic microscopic findings in the heart at any dose levels"}, {"measurement": "Atrophy; myofiber", "setting": "[6]; mouse, in vivo, iv", "result": 0}, {"measurement": "Atrophy; myofiber Grade 1", "setting": "[6]; mouse, in vivo, iv", "result": 0}, {"measurement": "Atrophy; myofiber Grade 2", "setting": "[6]; mouse, in vivo, iv", "result": 0}, {"measurement": "Degeneration/necrosis; myocardium", "setting": "[6]; mouse, in vivo, iv", "result": 0}, {"measurement": "Degeneration/necrosis; myocardium Grade 1", "setting": "[6]; mouse, in vivo, iv", "result": 0}, {"measurement": "Enlarg. Nuclei; myofib.", "setting": "[6]; mouse, in vivo, iv", "result": 0}, {"measurement": "Enlarg. Nuclei; myofib. Grade 1", "setting": "[6]; mouse, in vivo, iv", "result": 0}, {"measurement": "Infiltration; mix. Cells", "setting": "[6]; mouse, in vivo, iv", "result": 0}, {"measurement": "Infiltration; mix. Cells Grade 1", "setting": "[6]; mouse, in vivo, iv", "result": 0}, {"measurement": "Thrombus; atrium", "setting": "[6]; mouse, in vivo, iv", "result": 0}, {"measurement": "Thrombus; atrium Grade 1", "setting": "[6]; mouse, in vivo, iv", "result": 0}, {"measurement": "Vacuolation; myofib.", "setting": "[6]; mouse, in vivo, iv", "result": 0}, {"measurement": "Vacuolation; myofib. Grade 1", "setting": "[6]; mouse, in vivo, iv", "result": 0}, {"measurement": "Vacuolation; myofib. Grade 2", "setting": "[6]; mouse, in vivo, iv", "result": 0}, {"measurement": "% metabolites released: Dox", "setting": "[7]", "result": 2, "unit": "%"}, {"measurement": "% metabolites released: GP-dox", "setting": "[7]", "result": 0, "unit": "%"}, {"measurement": "% metabolites released: P-Dox", "setting": "[7]", "result": 0, "unit": "%"}, {"measurement": "total % metabolites", "setting": "[7]", "result": 2, "unit": "%"}, {"measurement": "% Metabolites released after 5 h (LS174T CM20xcc)", "setting": "[8]; 50 μM compound", "result": "81 ± 31", "unit": "%"}, {"measurement": "% Dox detected after 5 h (LS174T conditioned medium)", "setting": "[8]; metabolite Dox", "result": 24, "unit": "%"}, {"measurement": "% GP-Dox detected after 5 h (LS174T conditioned medium)", "setting": "[8]; metabolite GP-Dox", "result": 56, "unit": "%"}]}
